Assay results taken from patent US20240002498A1 (TENEOBIO, published 2024).
Residue numbers refer to the chain shown, from its start.

B1: anti-FOLR1 heavy chain antibody (HCAb, UniAb) clone ID 352317 (antibody, V domains shown)
VH: EVQLVESGGGLVKPGGSLRLSCAASGFTFSSYSMNWVRQAPGKGLEWVSSISSGSSYIYYADSVKGRFTISRDNAKNSLYLQMNSLRAEDTAVYYCARDVTSGIAAAGSAFNIRGQGTLVTVSS
notes: Heavy chain-only antibody (no light chain), F14 family
B2: anti-FOLR1 heavy chain antibody (HCAb, UniAb) clone ID 352368 (antibody, V domains shown)
VH: B1 VH with T28N, S30R, Y32F, S33G, N35T, V37L, S109A
notes: as for B1
B3: anti-FOLR1 heavy chain antibody (HCAb, UniAb) clone ID 352477 (antibody, V domains shown)
VH: B1 VH with K76R
notes: as for B1
B4: anti-FOLR1 heavy chain antibody (HCAb, UniAb) clone ID 352365 (antibody, V domains shown)
VH: EVQLVESGGGLVQPGGSLRLSCAASGFSFSSYSMKWVRQAPGKGLEWVSYISSSSSTIEYADSVKGRFTISRDNAKNSLYLQMNSLRDEDTAVYYCATVGLDFDYRGQGTLVTVSS
notes: Heavy chain-only antibody (no light chain), F18 family
B5: anti-FOLR1 heavy chain antibody (HCAb, UniAb) clone ID 358418 (antibody, V domains shown)
VH: B1 VH with K13Q, V93L
notes: as for B1
B6: anti-FOLR1 heavy chain antibody (HCAb, UniAb) clone ID 358420 (antibody, V domains shown)
VH: B1 VH with K76N, Y95F
notes: as for B1
B7: anti-FOLR1 heavy chain antibody (HCAb, UniAb) clone ID 358399 (antibody, V domains shown)
VH: B1 VH with A23V, G54S
notes: as for B1
B8: anti-FOLR1 heavy chain antibody (HCAb, UniAb) clone ID 358413 (antibody, V domains shown)
VH: B1 VH with K13Q, T28S, G54S, A75S, S78T
notes: as for B1
B9: anti-FOLR1 heavy chain antibody (HCAb, UniAb) clone ID 358456 (antibody, V domains shown)
VH: B1 VH with T28I, Y95F
notes: as for B1
B10: anti-FOLR1 heavy chain antibody (HCAb, UniAb) clone ID 358416 (antibody, V domains shown)
VH: B1 VH with S33T
notes: as for B1
B11: anti-FOLR1 heavy chain antibody (HCAb, UniAb) clone ID 358442 (antibody, V domains shown)
VH: B1 VH with S50Y, G54S
notes: as for B1
B12: anti-FOLR1 heavy chain antibody (HCAb, UniAb) clone ID 358478 (antibody, V domains shown)
VH: B1 VH with V12I, K13Q, T28I, S50Y, G54S
notes: as for B1
B13: anti-FOLR1 heavy chain antibody (HCAb, UniAb) clone ID 358452 (antibody, V domains shown)
VH: B1 VH with K13Q, S49A, Y57D
notes: as for B1
B14: anti-FOLR1 heavy chain antibody (HCAb, UniAb) clone ID 358462 (antibody, V domains shown)
VH: B1 VH with K13Q
notes: as for B1
B15: anti-FOLR1 heavy chain antibody (HCAb, UniAb) clone ID 358468 (antibody, V domains shown)
VH: B1 VH with G54S
notes: as for B1
B16: anti-FOLR1 heavy chain antibody (HCAb, UniAb) clone ID 358464 (antibody, V domains shown)
VH: B1 VH with K13Q, S50Y, G54S, Y57T
notes: as for B1
B17: anti-FOLR1 heavy chain antibody (HCAb, UniAb) clone ID 358397 (antibody, V domains shown)
VH: B1 VH with G15R, A23E
notes: as for B1
B18: anti-FOLR1 heavy chain antibody (HCAb, UniAb) clone ID 358441 (antibody, V domains shown)
VH: B1 VH with K13Q, T28S, A88G
notes: as for B1
B19: anti-FOLR1 heavy chain antibody (HCAb, UniAb) clone ID 358480 (antibody, V domains shown)
VH: B1 VH with S56T
notes: as for B1
B20: anti-FOLR1 heavy chain antibody (HCAb, UniAb) clone ID 358446 (antibody, V domains shown)
VH: B1 VH with T28I, N74D, Y95F
notes: as for B1
B21: anti-FOLR1 heavy chain antibody (HCAb, UniAb) clone ID 358466 (antibody, V domains shown)
VH: B1 VH with V12I, K13Q
notes: as for B1
B22: anti-FOLR1 heavy chain antibody (HCAb, UniAb) clone ID 358396 (antibody, V domains shown)
VH: B1 VH with G54S, Y95F
notes: as for B1
B23: anti-FOLR1 heavy chain antibody (HCAb, UniAb) clone ID 358393 (antibody, V domains shown)
VH: B1 VH with K13Q, V37A, S50Y, G54S, Y57S
notes: as for B1
B24: anti-FOLR1 heavy chain antibody (HCAb, UniAb) clone ID 358626 (antibody, V domains shown)
VH: B4 VH with Q13K, S56D, E89D, T98S
notes: as for B4
B25: anti-FOLR1 heavy chain antibody (HCAb, UniAb) clone ID 358590 (antibody, V domains shown)
VH: B4 VH with S28T, K35N, S56D, T98S
notes: as for B4
B26: anti-FOLR1 heavy chain antibody (HCAb, UniAb) clone ID 358608 (antibody, V domains shown)
VH: B4 VH with V48I, S53G, S56D, T98S
notes: as for B4
B27: anti-FOLR1 heavy chain antibody (HCAb, UniAb) clone ID 358676 (antibody, V domains shown)
VH: B4 VH with S56D, D88A, T98S
notes: as for B4
B28: anti-FOLR1 heavy chain antibody (HCAb, UniAb) clone ID 358624 (antibody, V domains shown)
VH: B4 VH with S56D, E89D, T98S
notes: as for B4
B29: anti-FOLR1 heavy chain antibody (HCAb, UniAb) clone ID 358596 (antibody, V domains shown)
VH: B4 VH with S28T, S52D, T57I, T98S
notes: as for B4
B30: anti-FOLR1 heavy chain antibody (HCAb, UniAb) clone ID 358664 (antibody, V domains shown)
VH: B4 VH with E46D, S56D, T98S
notes: as for B4
B31: anti-FOLR1 heavy chain antibody (HCAb, UniAb) clone ID 358647 (antibody, V domains shown)
VH: B4 VH with K35N, V48I, S53G, S56D, D88A, T98S
notes: as for B4
B32: anti-FOLR1 heavy chain antibody (HCAb, UniAb) clone ID 358655 (antibody, V domains shown)
VH: B4 VH with S28T, V48I, S53G, S56D, S85G, T98S
notes: as for B4
B33: anti-FOLR1 heavy chain antibody (HCAb, UniAb) clone ID 358656 (antibody, V domains shown)
VH: B4 VH with K35N, S56D, T98S
notes: as for B4

Biological target: recombinant human FOLR1 (human, UniProt P15328 25-234)
Experiment: BLI, Octet QK-384, recombinant human FOLR1
Experimental: As used herein, the “Kd” or “Kd value” refers to a dissociation constant determined by BioLayer Interferometry, using an Octet QK384 instrument (Fortebio Inc., Menlo Park, CA) in kinetics mode. For example, anti-mouse Fc sensors are loaded with mouse-Fc fused antigen and then dipped into antibody-containing wells to measure concentration dependent association rates (kon). Antibody dissociation rates (koff) are measured in the final step, where the sensors are dipped into wells containing buffer only. The Kd is the ratio of koff/kon. (For further details see, Concepcion, J, et al., Comb Chem High Throughput Screen, 12 (8), 791-800, 2009).
Table 17 summarizes affinity and epitope bin information for anti-FOLR1 heavy chain antibodies (HCAbs). Column 1 indicates the clone ID of the HCAb. Column 2 indicates the affinity of the HCAb to recombinant human FOLR1 as measured by Bio-layer interferometry (BLI) using an Octet QK-384. Column 3 indicates the epitope bin of HCAb as determined by a competition BLI binding experiment using an Octet QK-384.

Chain of recombinant human FOLR1 (P15328 25-234 limits assumed): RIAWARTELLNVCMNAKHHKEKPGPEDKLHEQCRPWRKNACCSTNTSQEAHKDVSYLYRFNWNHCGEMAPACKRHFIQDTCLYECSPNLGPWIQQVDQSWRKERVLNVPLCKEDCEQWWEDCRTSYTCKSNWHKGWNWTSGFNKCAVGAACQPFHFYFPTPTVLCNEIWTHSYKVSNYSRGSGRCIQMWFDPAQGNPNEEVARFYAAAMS

Kd	Binder
8.7 nM	B1
32.9 nM	B2
12.5 nM	B3
125 nM	B4

Biological target: T1, human Folate Receptor Alpha (FOLR1) on cells (human, UniProt P15328 25-234)
T1 construct: whole, on cells; Endogenous on IGROV-1, OVCAR-3, SKOV-3, HT-29 cells; transfected on CHO cells; the cell is named under assay; also called FRα; FRa
Experiment: flow cytometry, CHO cells stably expressing human FOLR1

T1 sequence (P15328 25-234): as the sequence (P15328 25-234 limits assumed) above

fold over background MFI	Binder
1220 fold over background	B1
1500 fold over background	B5
1230 fold over background	B2
1760 fold over background	B6
2010 fold over background	B7
1810 fold over background	B8
1870 fold over background	B9
1870 fold over background	B10
1600 fold over background	B11
427 fold over background	B12
1840 fold over background	B13
2150 fold over background	B14
1670 fold over background	B15
2100 fold over background	B16
277 fold over background	B17
1900 fold over background	B18
2140 fold over background	B19

fold over background MFI	Binder
1270 fold over background	B20
1600 fold over background	B21
1590 fold over background	B3
1730 fold over background	B22
402 fold over background	B23
906 fold over background	B4
1710 fold over background	B24
1570 fold over background	B25
1280 fold over background	B26
980 fold over background	B27
1670 fold over background	B28
1960 fold over background	B29
1470 fold over background	B30
920 fold over background	B31
926 fold over background	B32
1410 fold over background	B33

Biological target: T2, cyno FOLR1 on CHO cells (cyno (Cynomolgus macaque), UniProt A0A2K5U044 25-234)
T2 construct: whole, on cells; also called cyFOLR1
Experiment: cell binding, CHO cells stably expressing cyno FOLR1

T2 sequence (A0A2K5U044 entry or part of it): as the sequence (P15328 25-234 limits assumed) above, with I2T, W4R, R37K, A146P, H171Y counted along it

EC50	Binder
5 nM	B1
4.3 nM	B2
4.2 nM	B3
3.3 nM	B4

Biological target: T1, human Folate Receptor Alpha (FOLR1) on …
Experiment: cell binding, IGROV-1 cells

EC50	Binder
3.9 nM	B1
4.1 nM	B2
5 nM	B3
4.6 nM	B4

Biological target: T1, human Folate Receptor Alpha (FOLR1) on …
Experiment: flow cytometry, IGROV-1 cells

fold over background MFI	Binder
711 fold over background	B1
548 fold over background	B2
1960 fold over background	B3
594 fold over background	B4

Biological target: T1, human Folate Receptor Alpha (FOLR1) on …
Experiment: cell binding, OVCAR-3 cells

EC50	Binder
3.3 nM	B1
3.1 nM	B2
2.4 nM	B3

Biological target: T1, human Folate Receptor Alpha (FOLR1) on …
Experiment: cell binding, CHO cells stably expressing human FOLR1

EC50	Binder
5.1 nM	B1
3.8 nM	B2
4.2 nM	B3
3.8 nM	B4

Biological target: T2, cyno FOLR1 on CHO cells
Experiment: flow cytometry, CHO cells stably expressing cyno FOLR1

fold over background MFI	Binder
465 fold over background	B1
2080 fold over background	B5
179 fold over background	B2
2260 fold over background	B6
330 fold over background	B7
497 fold over background	B8
2090 fold over background	B9
1820 fold over background	B10
1.2 fold over background	B11
1.1 fold over background	B12
1.7 fold over background	B13
2580 fold over background	B14
314 fold over background	B15
6.4 fold over background	B16
331 fold over background	B17
2300 fold over background	B18
1200 fold over background	B19

fold over background MFI	Binder
1.5 fold over background	B20
2090 fold over background	B21
362 fold over background	B3
360 fold over background	B22
1.2 fold over background	B23
97.4 fold over background	B4
1060 fold over background	B24
21.8 fold over background	B25
535 fold over background	B26
717 fold over background	B27
933 fold over background	B28
1340 fold over background	B29
729 fold over background	B30
3 fold over background	B31
590 fold over background	B32
21.7 fold over background	B33

Biological target: T3, CHO_huFOLR2 (human, UniProt P14207)
T3 construct: stably expressed on CHO cells; also called human FOLR2 on CHO cells; folate receptor beta
Experiment: flow cytometry on CHO cells stably expressing human FOLR2, MFI fold over background
Experimental: Anti-FOLR1 HCAb binding to CHO cells stably expressing human FOLR2 (also known as folate receptor beta, FRβ), and CHO cells stably expressing human IZUMO1R (also known as folate receptor delta, FOLR4, FRδ, JUNO) was analyzed for a number of different clones. Data are presented in FIG. 2, panels A-B, as MFI fold over background. Insets show binding of positive control anti-FOLR2 and anti-IZUMO1R antibodies, respectively, in dark grey, compared to the respective isotype control in light grey.

T3 sequence (P14207 17-230 limits assumed): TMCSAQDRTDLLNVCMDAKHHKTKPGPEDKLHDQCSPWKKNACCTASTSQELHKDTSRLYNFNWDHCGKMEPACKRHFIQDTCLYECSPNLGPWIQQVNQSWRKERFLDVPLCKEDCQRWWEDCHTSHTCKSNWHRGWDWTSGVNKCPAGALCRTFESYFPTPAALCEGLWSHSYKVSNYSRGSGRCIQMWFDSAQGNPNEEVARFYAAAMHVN

binding result	Binder
binds	B1
binds	B2
binds	B3
no binding (tested: 100 nM)	B4
